Results reported in patent CN107081136A.

Tests used:
[1] = molecular target: Myc-GST融合蛋白 (Myc-GST fusion protein); assay: ELISA, Myc-GST coated at 5 μg/mL, HRP anti-His secondary antibody, heat-stability test at 90℃
[2] = molecular target: Myc-GST融合蛋白 (Myc-GST fusion protein); assay: ELISA, Myc-GST coated at 5 μg/mL, HRP anti-His secondary antibody, heat-stability test at 80℃
[3] = molecular target: Myc-GST融合蛋白 (Myc-GST fusion protein); assay: ELISA, Myc-GST coated at 5 μg/mL, HRP anti-His secondary antibody, heat-stability test at 70℃

- OD450 [1]: 1.2 OD450
- OD450 [2]: 1.3 OD450
- OD450 [3]: 1.5 OD450
B1: 抗c-Myc标签单域重链抗体 (anti-c-Myc tag single-domain heavy-chain antibody) (VHH, not shown: small tags and cut ends)
VHH: QLQLVESGGGLVQPGGSLRLSCTVSGFPLDNYAIGWLRQAPGKEREGVACISNRGGRTDYVDSVRGRFTISRDNAKKTVYLQMHNLKPEDTGIYYCVAPEMFRPCKLSSEDVRHWGHGTQVTVSS
